Test results from patent US20120121579A1, “TREATMENT OF ONCOSTATIN M RECEPTOR BETA MEDIATED HEART FAILURE” (MAX-PLANCK-GESELLSCHAFT ZUR FORDERUNG DER WISSENSCHAFTEN …, priority 2009, published 2012).
Entries after “also recorded” stand apart in the source; their conditions may differ.

Columns and labels:
cardiomyocytes [1] = test: Morphology of cultured adult cardiomyocytes: lengthening, sarcomeres, α-SM actin, cell growth (phase contrast, immunostaining); type: cell-based, rat; settings: for inhibition of OSM-induced cell lengthening: OSM-stimulated cardiomyocytes, serum-free
Protocol: (§1) MCP-1 transgenic animals, intraperitoneally injection of oncostatin M and culture of adult cardiomyocytes. The generation of transgenic mice (from FVB/N mice) with cardiac restricted overexpression of monocyte chemotactic protein-1 has been previously described (Kolattukudy et al. 1998). 6 months old FVB mice were injected intraperitoneally twice daily with a volume of 0.2 ml of phosphate buffered saline containing 5% fetal calf serum without (CON) or with 60 ng oncostatin M (OSM) per gram of animal for fourteen days. Ventricular cardiac myocytes of 6-mo-old rats were isolated as previously described (Kubin et al. 1999). Myocytes were plated at a density of 1.5×10^4 cells/cm^2 on laminin-coated (10 μg/ml; Sigma) chamber slides or 6 well dishes (Nunc) in basic medium. Myocytes were allowed to recover for 2 days in 2% fetal calf serum (FCS). Thereafter, basic medium, FCS, 50 ng/ml insulin-like growth factor-1 or 20 ng/ml of cytokines were added as indicated. Media were replaced every other day. UO126 (Cell Signaling Technology) was added 1 h prior to stimulation. All experiments were performed in duplicate and constantly treated with 10 μM 1-(β-D-arabinofuranosyl)cytosine to prevent nonmyocyte growth. Determination of secreted ANP by Western Blot was performed after ultrafiltration (Millipore).
(§2) Phase-contrast micrographs, immunocytochemistry and fluorescence microscopy. Phase-contrast micrographs were taken with a 20× lens. For immunocytochemistry and fluorescence microscopy samples were processed as previously described (Kubin et al. 1999).

Erk1/2 = test: OSM-induced Erk1/2 activation in cultured cardiomyocytes (Western blot); type: cell-based, rat; settings: after 10 minutes of OSM
Protocol: as §1, with “Determination of secreted ANP by Western Blot was performed after ultrafiltration (Millipore).” left out
(§3) Preparation of Protein Extracts and Western Blot Analysis. […] Immunoreactive proteins were visualized on the VersaDoc (BioRad) and analyzed using the QuantityOne software (BioRad).

[2] = tested on: OSM treated cardiomyocytes; test: Inhibition of OSM-induced FGP in cultured cardiomyocytes (Western blot of 95 kDa B-Raf, α-SM actin, destrin, secreted ANP); type: cell-based, rat; settings: after 10 days of OSM
Protocol: as §1, with “Determination of secreted ANP by Western Blot was performed after ultrafiltration (Millipore).” left out
as §3

cardiomyocytes [3] = test: Cytokine-induced FGP / dedifferentiation markers in cultured adult cardiomyocytes (Western blot); type: cell-based, rat; settings: 20 ng/ml of cytokines, 10d of serum-free culture
Protocol: as §1
(§4) Preparation of Protein Extracts and Western Blot Analysis. Tissue Samples were Sonicated in Lysis buffer (0.1M Tris-HCl, 10% sodium dodecylsulfate (SDS), 10 mM ethylenediamine tetraacetic acid, 40 mM dithiothreitol (DTT); pH 8.0) containing inhibitors as previously described (Vogel et al. 2006). Cultures were washed twice with PBS and harvested by scraping in lysis buffer. After heating for 1 minute at 99° C. debris was removed by centrifugation for 2 min at 14000 g. Twenty micrograms of protein extracts were separated on 4%-12% SDS-PAGE gradient gels and processed as previously described (Vogel et al. 2006). Immunoreactive proteins were visualized on the VersaDoc (BioRad) and analyzed using the QuantityOne software (BioRad).

gp130/Raf/Erk axis = test: Intraperitoneal oncostatin M treatment of mice, Western blot and immunostaining of cardiac tissue; type: in vivo, mouse
Protocol: as §1, §4, §2

[4] = 60 ng OSM per gram i.p. twice daily for fourteen days

With `N#CC(=C(/N)Sc1ccccc1N)/C(C#N)=C(/N)Sc1ccccc1N` [UO126] the “inhibition of OSM-induced cell lengthening” value (cardiomyocytes [1]; 8 days) was “completely abolished OSM-induced lengthening; also recorded: abolishment of cell lengthening”, the “inhibition of OSM-induced cell lengthening” value (cardiomyocytes [1]; 8 days, listed as UO) was “abolishes this effect” and the “inhibition of OSM-induced Erk1/2 activation (phosphorylation)” value (Erk1/2) was “abolished the activation of Erk1/2; also recorded: inhibition of Erk1/2 activation”. The “inhibition of OSM-induced re-expression of α-SM actin, the 95 kDa B-Raf and destrin (FGP)” value [2] was “complete inhibition of the reexpression; also recorded: loss of re-expression of α-SM actin, the 95 kDa B-Raf and destrin; also recorded: abolishment of cell lengthening, the reexpression of ANP, α-SM actin and the 95 kDa B-Raf isoform” and the “secretion of ANP by OSM-treated cardiomyocytes” value [2] was “loss of secreted atrial natriuretic peptide; also recorded: reduced secretion of ANP”.

With “MCP-1: monocyte chemotactic protein-1, recombinant mouse protein” the “induction of FGP / dedifferentiation (re-expression of the 95 kDa B-Raf, α-SM actin and destrin)” value (“induction of FGP / dedifferentiation” for short) (cardiomyocytes [3]) was “neither TNF-α nor MCP-1 induced FGP”.

For TNF-α, the “induction of FGP / dedifferentiation” value (cardiomyocytes [3]) was “neither TNF-α nor MCP-1 induced FGP”.

B1: 11-6: interleukin-6, recombinant mouse cytokine (protein, UniProt P08505 25-211, looked up)
Interleukin-6: FPTSQVRRGDFTEDTTPNRPVYTTSQVGGLITHVLWEIVEMRKELCNGNSDCMNNDDALAENNLKLPEIQRNDGCYQTGYNQEICLLKISSGLLEYHSYLEYMKNNLKDNKKDKARVLQRDTETLIHIFNQEVKDLHKIVLPTPISNALLTDKLESQKEWLRTKTIQFILKSLEEFLKVTLRSTRQT
B1 was tested, and the “induction of FGP / dedifferentiation” value (cardiomyocytes [3]) was “only a limited capacity to induce dedifferentiation”.

B2: OSM: mouse oncostatin M, recombinant cytokine obtained from Sigma (protein)
chain: ANRGCSNSSSQLLSQLQNQANLTGNTESLLEPYIRLQNLNTPDLRAACTQHSVAFPSEDTLRQLSKPHFLSTVYTTLDRVLYQLDALRQKFLKTPAFPKLDSARHNILGIRNNVFCMARLLNHSLEIPEPTQTDSGASRSTTTPDVFNTKIGSCGFLWGYHRFMGSVGRVFREWDDGSTRSRR
In the case of B2, the “induction of FGP / dedifferentiation” value (cardiomyocytes [3]) is reported as “induces more potently FGP than LIF”, the “re-expression of α-SM actin (immunostaining)” value (cardiomyocytes [1]; 2% serum, 12 days) is reported as “massive re-expression of α-SM actin throughout the myocyte” and the loss of sarcomeres (cardiomyocytes [1]; 2% serum, 12 days, versus 2% serum treated controls) is reported as “massive loss of sarcomeres”. For the same molecule, the “remodelling of cardiomyocytes (cell lengthening)” value (cardiomyocytes [1]; absence of serum, 8 days) was “remodelling of cardiomyocytes primarily visible in cell lengthening”, the “P-Erk1/2 in cardiac tissue” value (gp130/Raf/Erk axis; [4]) was “Moderate increases” and the “amounts of B-Raf isoforms in cardiac tissue” value (gp130/Raf/Erk axis; [4]) was “increased amounts of all B-Raf isoforms”. The “level of LIF in cardiac tissue” value (gp130/Raf/Erk axis; [4]) was “did not change; also recorded: No changes”, the “level of α-SM actin, destrin and ANP in myocardial tissue” value (gp130/Raf/Erk axis; [4]) was “increased level” and the “phosphorylation level of the serine residue 782 of gp130” value (gp130/Raf/Erk axis; [4]) was “significant increases”. The “amount of OSMRβ in cardiac tissue” value (gp130/Raf/Erk axis; 60 ng OSM per gram i.p. twice daily for fourteen days, 6 months old mice) was “significant increases” and the “heart failure phenotype after injection into mice” value (gp130/Raf/Erk axis; injection of OSM into mice) was “resulted into the heart failure phenotype of DCM”.

B3: cardiotrophin: recombinant mouse cytokine of the interleukin-6 class (protein, UniProt Q60753 1-203, looked up)
Cardiotrophin-1: MSQREGSLEDHQTDSSISFLPHLEAKIRQTHNLARLLTKYAEQLLEEYVQQQGEPFGLPGFSPPRLPLAGLSGPAPSHAGLPVSERLRQDAAALSVLPALLDAVRRRQAELNPRAPRLLRSLEDAARQVRALGAAVETVLAALGAAARGPGPEPVTVATLFTANSTAGIFSAKVLGFHVCGLYGEWVSRTEGDLGQLVPGGVA
With B3 the “induction of FGP / dedifferentiation” value (cardiomyocytes [3]) was “only a limited capacity to induce dedifferentiation”.
